The source of these data is paper PMC6167709.

A short description of data set [1]: SEC; ConSOSL.UFO.664 from concentrated 293T.17 supernatant, in PBS, Enrich SEC 650 column; oligomeric state of the gp140. (In gel filtration, larger molecules generally elute earlier.)
For data set [2], the target named is ConSOSL.UFO.664 gp140 (HIV-1 (group M consensus, ConS)). The data set is described as above.

Broadly, the stoichiometry N is a count of units in the complex or per binding partner.

For ConSOSL.UFO.664 gp140, the “share of the trimer peak in the SEC profile” value in data set [1] is listed as “trimer peak ∼54%”. This substance had a stoichiometry N in data set [2] of 3.
